Source: paper doi:10.1101/2022.07.18.499583

Target: NSP1 (SARS-CoV-2, UniProt P0DTD1 1-180)
Experiment: BLI

AACCAACUUUCGAUCUCUUGUAGAUCUGUUCU (structured_RNA) [SL2 (unmodified)]
Kd: 300 ± 54 nM
